From publication PMC11843870

Molecular target: Xn-XptA2 wt (A subunit, TcA, of the ABC toxin complex of Xenorhabdus nematophilus) (Xenorhabdus nematophilus)
Assay: cryo-EM structure; single particle analysis, 1.5 mg/mL protein in 10 mM Tris, 100 mM NaCl, pH 7.5; C5 symmetry

For “Xn-XptA2 wt (A subunit, TcA, of the ABC toxin complex of Xenorhabdus nematophilus) (natural protein)”, the stoichiometry N was 5.
